Data taken from US20150344570A1 (published 2015).

Columns and labels:
[1] = biological target: FcγRIIIa extracellular domain with C-terminal His tag (human, UniProt P08637 17-208); experiment: SPR (Biacore), one H chain altered; HeCon Ab GpH7-A5/GpH7-B3/GpL16-k0 = 100
Target sequence in this assay (P08637 17-208): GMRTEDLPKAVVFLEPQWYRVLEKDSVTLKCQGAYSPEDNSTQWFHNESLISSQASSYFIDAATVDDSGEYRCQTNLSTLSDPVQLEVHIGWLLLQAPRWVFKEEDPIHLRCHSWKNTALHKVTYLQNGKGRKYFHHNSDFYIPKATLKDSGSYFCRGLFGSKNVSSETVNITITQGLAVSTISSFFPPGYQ

[2] = biological target: T1, FcγRIIIa extracellular domain with C-terminal His tag (human, UniProt P08637 17-208); experiment: SPR (Biacore); He/Con_3a divided by He/Con_2b (FcγRIIIa against FcγRIIb)
T1 construct: extracellular domain; also called FcgRIIIa; 3a
Procedure: (§1) The heterodimerized antibodies He Abs in which one of the H chains was introduced with an alteration were assayed for their binding activities to each activating FcγR and inhibitory FcγR according to the method described in Example 4. […] The activating FcγRs in FIGS. 26, 27, 28, and 29 are FcγRIa, FcγRIIa (R), FcγRIIa (H), and FcγRIIIa, respectively.
(§2) Analysis of interaction between objective antibody and the FcγR was carried out using Biacore T100 (GE Healthcare). HBS-EP+ (GE Healthcare) was used as the running buffer, and the measurement temperature was set to 25° C. Chips produced by immobilizing the antigen peptide by the amine coupling method to a Series S Sencor Chip CM5 (GE Healthcare), or alternatively, chips produced by allowing preliminarily biotinylated antigen peptides to interact with and immobilize onto a Series S Sensor Chip SA (certified) (GE Healthcare) were used. Antibodies of interest were captured onto an antigen peptide-immobilized chip, and allowed to interact to each FcγR diluted with running buffer. To regenerate and repeatedly use the chip, the antibodies captured on the chip were washed off by reacting 10 mM glycine-HCl, pH 1.5.
T1 sequence (P08637 17-208): as above

[3] = biological target: T2, FcγRIIb extracellular domain with C-terminal His tag (human, UniProt P31994 43-217); experiment: SPR (Biacore), antibody captured on antigen peptide chip, FcγR as analyte; GpH7-A5/GpH7-B3/GpL16-k0 = 100
T2 construct: extracellular domain; Soluble receptor expressed in FreeStyle293 cells, used as analyte in Biacore; also called FcgRIIb; 2b
T2 sequence (looked up): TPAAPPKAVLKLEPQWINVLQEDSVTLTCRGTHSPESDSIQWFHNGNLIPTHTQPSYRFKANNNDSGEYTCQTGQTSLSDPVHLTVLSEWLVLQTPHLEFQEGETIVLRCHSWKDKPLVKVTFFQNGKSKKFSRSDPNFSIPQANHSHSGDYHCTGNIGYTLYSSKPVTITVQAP
Procedure: as §1, §2

[4] = biological target: T1, FcγRIIIa extracellular domain with …; experiment: as above
Procedure: as §1, §2

B1: GpH7-A5/GpH7-B3 variant S337_04F/GpL16-k0 (antibody, human IgG1, kappa)
heavy 1: not shown
heavy 2: not shown
light: DIVMTQSPLSLPVTPGEPASISCQASESLVHSNRNTYLHWYLQKPGQSPQLLIYKVSNRFSGVPDRFSGSGSGTDFTLKISRVEAEDVGVYYCSQNTHVPPTFGQGTKVEIERTVAAPSVFIFPPSDEQLKSGTASVVCLLNNFYPREAKVQWKVDNALQSGNSQESVTEQDSKDSTYSLSSTLTLSKADYEKHKVYACEVTHQGLSSPVTKSFNRGEC
notes: one H chain altered; also called He Ab S337_04F
[1]
  He/Con_3a: 101%

B2: GpH7-A5/GpH7-B3 variant T335_15Y/GpL16-k0 (antibody, human IgG1, kappa)
heavy 1: not shown
heavy 2: not shown
light: B1 light
notes: one H chain altered; also called He Ab T335_15Y
[1]
  He/Con_3a: 104%

B3: GpH7-A5/GpH7-B3 variant I332_01G/GpL16-k0 (antibody, human IgG1, kappa)
heavy 1: not shown
heavy 2: not shown
light: B1 light
notes: one H chain altered; also called He Ab I332_01G
[1]
  He/Con_3a: 111%

B4: GpH7-A5/GpH7-B3 variant S298_02A/GpL16-k0 (antibody, human IgG1, kappa)
heavy 1: not shown
heavy 2: not shown
light: B1 light
notes: Heterodimerized anti-glypican-3 IgG1; mutation in the GpH7-B3 chain only; also called He Ab
[2]
  He_3a/2b (IIIa/IIb): 2.18 ratio
[3]
  He/Con_2b (relative binding activity): 73.4 % of control
[4]
  He/Con_3a (relative binding activity): 160 % of control

B5: GpH7-A5/GpH7-B3 variant T335_19Q/GpL16-k0 (antibody, human IgG1, kappa)
heavy 1: not shown
heavy 2: not shown
light: B1 light
notes: one H chain altered; also called He Ab T335_19Q
[1]
  He/Con_3a: 102%

B6: GpH7-A5/GpH7-B3 variant S337_18N/GpL16-k0 (antibody, human IgG1, kappa)
heavy 1: not shown
heavy 2: not shown
light: B1 light
notes: one H chain altered; also called He Ab S337_18N
[1]
  He/Con_3a: 104%

B7: GpH7-A5/GpH7-B3 variant S337_09D/GpL16-k0 (antibody, human IgG1, kappa)
heavy 1: not shown
heavy 2: not shown
light: B1 light
notes: one H chain altered; also called He Ab S337_09D
[1]
  He/Con_3a: 110%

B8: GpH7-A5/GpH7-B3 variant S267_09D/GpL16-k0 (antibody, human IgG1, kappa)
heavy 1: not shown
heavy 2: not shown
light: B1 light
notes: one H chain altered; also called He Ab S267_09D
[1]
  He/Con_3a: 181%

B9: GpH7-A5/GpH7-B3 variant S324_16H/GpL16-k0 (antibody, human IgG1, kappa)
heavy 1: not shown
heavy 2: not shown
light: B1 light
notes: one H chain altered; also called He Ab S324_16H
[1]
  He/Con_3a: 104%

B10: GpH7-A5/GpH7-B3 variant T335_13S/GpL16-k0 (antibody, human IgG1, kappa)
heavy 1: not shown
heavy 2: not shown
light: B1 light
notes: one H chain altered; also called He Ab T335_13S
[1]
  He/Con_3a: 105%

B11: GpH7-A5/GpH7-B3 variant T335_20W/GpL16-k0 (antibody, human IgG1, kappa)
heavy 1: not shown
heavy 2: not shown
light: B1 light
notes: one H chain altered; also called He Ab T335_20W
[1]
  He/Con_3a: 102%

B12: GpH7-A5/GpH7-B3 variant H268_02A/GpL16-k0 (antibody, human IgG1, kappa)
heavy 1: not shown
heavy 2: not shown
light: B1 light
notes: one H chain altered; also called He Ab H268_02A
[1]
  He/Con_3a: 122%

B13: GpH7-A5/GpH7-B3 variant K334_01G/GpL16-k0 (antibody, human IgG1, kappa)
heavy 1: not shown
heavy 2: not shown
light: B1 light
notes: one H chain altered; also called He Ab K334_01G
[1]
  He/Con_3a: 121%

B14: GpH7-A5/GpH7-B3 variant T335_10E/GpL16-k0 (antibody, human IgG1, kappa)
heavy 1: not shown
heavy 2: not shown
light: B1 light
notes: one H chain altered; also called He Ab T335_10E
[1]
  He/Con_3a: 107%

B15: GpH7-A5/GpH7-B3 variant T335_16H/GpL16-k0 (antibody, human IgG1, kappa)
heavy 1: not shown
heavy 2: not shown
light: B1 light
notes: one H chain altered; also called He Ab T335_16H
[1]
  He/Con_3a: 104%

B16: GpH7-A5/GpH7-B3 variant Q295_14T/GpL16-k0 (antibody, human IgG1, kappa)
heavy 1: not shown
heavy 2: not shown
light: B1 light
notes: one H chain altered; also called He Ab Q295_14T
[1]
  He/Con_3a: 115%

B17: GpH7-A5/GpH7-B3 variant I336_18N/GpL16-k0 (antibody, human IgG1, kappa)
heavy 1: not shown
heavy 2: not shown
light: B1 light
notes: one H chain altered; also called He Ab I336_18N
[1]
  He/Con_3a: 104%

B18: GpH7-A5/GpH7-B3 variant S324_15Y/GpL16-k0 (antibody, human IgG1, kappa)
heavy 1: not shown
heavy 2: not shown
light: B1 light
notes: one H chain altered; also called He Ab S324_15Y
[1]
  He/Con_3a: 101%

B19: GpH7-A5/GpH7-B3 variant K326_08L/GpL16-k0 (antibody, human IgG1, kappa)
heavy 1: not shown
heavy 2: not shown
light: B1 light
notes: one H chain altered; also called He Ab K326_08L
[1]
  He/Con_3a: 114%

B20: GpH7-A5/GpH7-B3 variant S337_15Y/GpL16-k0 (antibody, human IgG1, kappa)
heavy 1: not shown
heavy 2: not shown
light: B1 light
notes: one H chain altered; also called He Ab S337_15Y
[1]
  He/Con_3a: 102%

B21: GpH7-A5/GpH7-B3 variant E333_09D/GpL16-k0 (antibody, human IgG1, kappa)
heavy 1: not shown
heavy 2: not shown
light: B1 light
notes: one H chain altered; also called He Ab E333_09D
[1]
  He/Con_3a: 112%

B22: GpH7-A5/GpH7-B3 variant I336_06M/GpL16-k0 (antibody, human IgG1, kappa)
heavy 1: not shown
heavy 2: not shown
light: B1 light
notes: one H chain altered; also called He Ab I336_06M
[1]
  He/Con_3a: 109%
